Here are results for 6 molecules from patent US20220340642A1 (Kyowa Kirin, published 2022).

Numbering of substitutions follows the chain as printed. Names may count otherwise.

As usually defined, the Kd is a measure of binding affinity in units of concentration.

In experiment [1] the target is T1, Human His6 Fas Ligand/TNFSF6 (Cell Signaling Technology, Inc.) (human, UniProt P48023 133-281).
T1 construct: Bought; confirmed as a trimer by SEC-MALS; also called recombinant human His6 Fas Ligand; soluble human FasL trimer
T1 sequence: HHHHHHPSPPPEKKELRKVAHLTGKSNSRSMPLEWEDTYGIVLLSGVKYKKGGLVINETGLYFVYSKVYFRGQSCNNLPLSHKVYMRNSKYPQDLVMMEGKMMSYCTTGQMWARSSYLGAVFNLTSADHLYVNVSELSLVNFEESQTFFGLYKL
Briefly: SPR, binder captured on Protein A chip. Here is the method:
(§1) The binding activity to human and cynomolgus monkey DcR3 ligand trimers were analyzed by the SPR method. BIAcore T-100 (GE Healthcare) was used for measurement of the binding activities to human LIGHT, cynomolgus monkey LIGHT, human TL1A and cynomolgus monkey TL1A, and BIAcore T-200 (GE Healthcare) was used for measurement of the binding activities to human FasL and cynomolgus monkey FasL. As the buffer, HBS-EP+Buffer was used.
(§2) Various DcR3 variants were injected into Series S Sensor Chip Protein A (GE Healthcare) at 10 μL/min for 30 seconds and captured. Meanwhile, the buffer containing no protein was injected into a reference flow cell. Thereafter, as an analyte, each human DcR3 ligand trimer or each cynomolgus monkey DcR3 ligand trimer diluted to 0.08 to 20 nmol/L was injected. A human LIGHT trimer, a human TL1A trimer or each cynomolgus monkey DcR3 ligand trimer was injected at the flow rate of 30 μL/min for 2 minutes to monitor the binding, and subsequently the buffer was injected for 5 minutes to monitor dissociation. A human FasL trimer was injected at 30 μL/min for 1 minute to monitor the binding, and subsequently the buffer was injected for 3 minutes to monitor dissociation. Then, 3 mol/L magnesium chloride was injected at 30 μL/min for 1 minute to perform a regeneration reaction.

In experiment [2] the target is T2, soluble recombinant of cynomolgus monkey FasL (His6, Pro133-Leu280) (cynomolgus monkey, UniProt P63308 133-280).
T2 construct: also called His6-cynoFasL
T2 sequence: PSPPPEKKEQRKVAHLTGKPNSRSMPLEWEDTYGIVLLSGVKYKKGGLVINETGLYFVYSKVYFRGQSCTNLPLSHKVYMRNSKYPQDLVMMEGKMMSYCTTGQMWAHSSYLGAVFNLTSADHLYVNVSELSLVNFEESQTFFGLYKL
Nature of the experiment: SPR, binder captured on Protein A chip. As to the method: as §1, §2

Experiment [3] concerns the target T3, soluble recombinant of cynomolgus monkey TL1A (His6, GS linker, Leu72-Leu251) (cynomolgus monkey).
T3 construct: also called His6-cynoTL1A
T3 chain: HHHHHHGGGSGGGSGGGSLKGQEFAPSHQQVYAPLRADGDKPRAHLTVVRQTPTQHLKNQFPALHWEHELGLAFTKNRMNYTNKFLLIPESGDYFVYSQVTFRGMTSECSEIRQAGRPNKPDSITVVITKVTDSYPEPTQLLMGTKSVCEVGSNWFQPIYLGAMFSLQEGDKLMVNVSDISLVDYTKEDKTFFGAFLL
Briefly: SPR, binder captured on Protein A chip. Here is the method: as §1, §2

Experiment [4] deals with T4, soluble recombinant of human TL1A (His6, GS linker, Leu72-Leu251) (human, UniProt O95150 72-251).
T4 construct: also called His6-TL1A; hTL1A
T4 sequence: T3 chain with L57F, V96I
Nature of the experiment: SPR, binder captured on Protein A chip. Here is the method:
as §1, §2
Background: Surface plasmon resonance follows binding to a sensor surface in real time, without labels.

Experiment [5] deals with T5, FLAG-LIGHT (FLAG tag, human LIGHT Asp74-Val240) (human, UniProt O43557 74-240).
T5 construct: SEC trimer fraction; also called soluble recombinant FLAG-LIGHT trimer; soluble human LIGHT trimer
Briefly: SPR, binder captured on Protein A chip. Here is the method:
as §1, §2

The target in experiment [6] is T6, FLAG-cynoLIGHT (FLAG tag, cynomolgus monkey LIGHT Asp74-Val240) (cynomolgus monkey).
T6 construct: SEC trimer fraction; also called soluble cynomolgus monkey LIGHT trimer
T6 chain: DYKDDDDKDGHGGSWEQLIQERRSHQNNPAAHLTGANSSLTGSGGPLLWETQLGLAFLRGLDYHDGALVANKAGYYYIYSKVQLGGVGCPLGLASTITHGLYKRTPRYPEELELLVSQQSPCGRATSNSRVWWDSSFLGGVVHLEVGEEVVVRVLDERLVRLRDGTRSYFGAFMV
Briefly: SPR, binder captured on Protein A chip. Here is the method:
as §1, §2

For experiment [7], the target named is T7, soluble recombinant of human LIGHT (His10, GS linker, Asp74-Val240).
T7 chain: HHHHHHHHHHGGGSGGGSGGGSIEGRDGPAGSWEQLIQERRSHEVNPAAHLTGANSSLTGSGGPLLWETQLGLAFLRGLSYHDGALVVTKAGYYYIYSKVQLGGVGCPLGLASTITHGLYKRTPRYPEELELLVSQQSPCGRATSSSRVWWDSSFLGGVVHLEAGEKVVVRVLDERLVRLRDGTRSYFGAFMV
Nature of the experiment: BIAcore SPR. The method in brief: (§3)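 Dissociation constants (Kd, nM) come from surface plasmon resonance measurements on a BIAcore T-100 or T-200 instrument (GE Healthcare) in HBS-EP+ Buffer. Each test molecule was analysed for binding to soluble recombinant His-tagged human or cynomolgus monkey LIGHT, TL1A or FasL.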

Experiment [8] has as its target T8, soluble recombinant of human TL1A (His6, GS linker, Leu72-Leu251) (UniProt O95150 72-251).
T8 chain: T3 chain with L57F, V96I
Nature of the experiment: BIAcore SPR. The essentials: as §3

In experiment [9] the target is T9, soluble recombinant of human FasL (His6, Pro134-Leu281) (UniProt P48023 134-281).
T9 chain: T2 sequence with Q10L, P20S, T70N, H108R
Nature of the experiment: BIAcore SPR. The essentials: as §3

B1: chimera A-E57K_R58D-Fc (Eg1S LALAGANA) (Fc fusion)
chain: ETFPPKYLHYDEETSHQLLCDKCPPGTYLKQHCTAKWKTVCAPCPPRHYTQFWNYLKDCRYCNVLCGEREEEARACHATHNRACRCRTGFFAHAGFCLEHASCPPGAGVIAPGTPSQNTQCQPCPDGFFSNETSSKAPCRKHTNCSVFGLLLTQKGNATHDNICSGNSESTQKEPKSSDKTHTCPPCPAPEAAGAPSVFLFPPKPKDTLMISRTPEVTCVVVDVSHEDPEVKFNWYVDGVEVHNAKTKPREEQYNSTYRVVSVLTVLHQDWLNGKEYKCKVSNKALPAPIEKTISKAKGQPREPQVYTLPPSRDELTKNQVSLTCLVKGFYPSDIAVEWESNGQPENNYKTTPPVLDSDGSFFLYSKLTVDKSRWQQGNVFSCSVMHEALHAHYTQKSLSLSPGK
For B1, the binding result in experiment [1], in [2], in [3], in experiment [4], in experiment [5] and in experiment [6] was “binds” in each case. Further, the values for the Kd in experiment [7], in experiment [8] and in experiment [9] were 0.3 nM, 0.2 nM and 4.6 nM, respectively.

B2: chimera A-E57V-Fc (Eg1S YTE) (Fc fusion)
chain: B1 chain with K57V, D58R, A192L, A193L, A195G, M210Y, S212T, T214E, A392N
Take B2: the binding result in [1], in [2], in experiment [3], in [4], in [5] and in experiment [6] was “binds” in each case. Further, the Kd in experiment [7] amounted to 0.35 nM; in experiment [8], 0.24 nM; in [9], 5.3 nM.

B3: chimera A-Fc (Eg1S YTE) (Fc fusion)
chain: B1 chain with K57E, D58R, A192L, A193L, A195G, M210Y, S212T, T214E, A392N
As to B3, the binding result in experiment [1], in experiment [2], in experiment [3], in experiment [4], in [5] and in experiment [6] was “binds” each time. In addition, the dissociation constant (Kd) in experiment [7] amounted to 0.27 nM; in experiment [8], 0.16 nM; in experiment [9], 1.2 nM.

B4: chimera A-Fc (Eg1S LALAGANA) (Fc fusion)
chain: B1 chain with K57E, D58R
Turning to B4, the binding result in experiment [1], in [2], in experiment [3], in experiment [4], in experiment [5] and in experiment [6] was “binds” each time. The Kd in experiment [7] worked out at 0.2 nM; in experiment [8], 0.12 nM; in experiment [9], 0.75 nM.

B5: chimera A-E57K_R58D-Fc (Eg1S YTE) (Fc fusion)
chain: B1 chain with A192L, A193L, A195G, M210Y, S212T, T214E, A392N
notes: also called 45-10-Fc (Eg1S YTE)
For B5, the binding result in experiment [1], in experiment [2], in experiment [3], in experiment [4], in [5] and in experiment [6] was “binds” each time. Moreover, the equilibrium dissociation constant (Kd) is 0.4 nM in [7], 0.25 nM in experiment [8] and 5.7 nM in [9].

B6: chimera A-E57K_R58E-Fc (Eg1S YTE) (Fc fusion)
chain: B1 chain with D58E, A192L, A193L, A195G, M210Y, S212T, T214E, A392N
notes: also called 45-18-Fc (Eg1S YTE)
In the case of B6, the binding result in [1], in experiment [2], in experiment [3], in [4], in experiment [5] and in experiment [6] was “binds” in each case. The Kd in experiment [7] is 0.33 nM; in [8], 0.2 nM; in experiment [9], 5.6 nM.
